Kd data for one molecule are collected here from article PMC3203579.

In this data set the target is T1, AtFib2 (Arabidopsis thaliana, UniProt Q94AH9 1-320).
T1 sequence: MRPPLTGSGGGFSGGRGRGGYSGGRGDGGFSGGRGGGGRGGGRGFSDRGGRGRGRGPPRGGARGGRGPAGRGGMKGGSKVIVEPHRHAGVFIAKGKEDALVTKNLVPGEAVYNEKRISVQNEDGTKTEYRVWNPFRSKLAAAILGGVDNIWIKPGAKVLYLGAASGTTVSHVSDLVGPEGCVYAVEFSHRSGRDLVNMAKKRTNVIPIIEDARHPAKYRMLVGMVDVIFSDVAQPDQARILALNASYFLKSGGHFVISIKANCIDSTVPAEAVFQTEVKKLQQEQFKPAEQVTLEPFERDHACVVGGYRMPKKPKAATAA
The data set can be described thus: EMSA. (In general: Mobility shift assays separate free from complexed probe on a gel.)

B1: poly(A) 80 nt (ssRNA)
RNA: AAAAAAAAAAAAAAAAAAAAAAAAAAAAAAAAAAAAAAAAAAAAAAAAAAAAAAAAAAAAAAAAAAAAAAAAAAAAAAAA
The term Kd denotes the equilibrium constant for the complex coming apart. Higher therefore signals weaker binding. For the molecule B1, the Kd is 190 nM.
